Laboratory results reported in patent US11679121B2, “Morpholino oligonucleotides useful in cancer treatment” (United States Government As Represented By The Department …, priority 2018, dated 2023).
“Also recorded” adds a separate entry of the source.

Tests used:
MGMT [1] = test: Western blot of MGMT expression in tumor cell lines after scrape-loading or transfection-agent delivery of AMONs; format: cell-based, human
Description: The ability of each of three AMONs (SEQ ID NO: 1, SEQ ID NO: 2, and SEQ ID NO: 3) to inhibit MGMT expression in tumor cell lines was assessed. Three MGMT expressing solid tumor cell lines (T98G Glioma, H460 and A549 non-small-cell-lung cancer cell lines) were transduced with AMONs using a scrape-loading technique (Partridge M et al, Antisense Nucleic Acid Drug Dev 6, 169-175 (1996); incorporated by reference herein). […] This was replicated in H460 and A549 NSCLC lines.
[…] transfection agents were also used to introduce the AMONs into the cells and produced similar results (FIG. 1B). MGMT silencing was not achieved when cells were exposed to AMONS without scrape-loading or liposomal transfection agents (controls).
Cells were maintained at 37° C. and in an atmosphere containing 5% CO2. Three MGMT antisense oligonucleotide sequences: SEQ ID NO: 1-5′-[…]-3′; SEQ ID NO: 2-5′-[…]-3′; SEQ ID NO: 3-5′-[…]-3′ and one non-specific control sequence: SEQ ID NO: 4-5′-[…]-3′ were synthesized and purchased from Gene Tools, LLC (Philomath, Oreg., USA). Mouse anti-tubulin antibody (T9026) was purchased from Sigma (St. Louis, Mo., USA). Anti-MGMT (#2739), caspase 3 (#9662) and phospho-p53 (Ser15) (#9284) antibodies were purchased from Cell Signaling (Danvers, Mass., USA). Mouse anti-dynamin II (sc-166526) monoclonal antibody was purchased from Santa Cruz Biotechnology (Santa Cruz, Calif., USA).
Delivery of MGMT-morpholino in vitro into the cancer cells: Scrape delivery: 10^6 cancer cells were seeded on a 10-cm culture plate. The culture plate was placed on a flat surface and the cells scraped off the surface with a sterile cell scraper. Different doses or combinations of MGMT-morpholinos were added to the cells. Scraped cell suspensions were pipetted up and down twice and transferred to another culture plate.
Transfection agent delivery: 10^6 cancer cells were seeded in 10-cm culture plate. Cells were treated with transfection agent DharmaFECT (GE Dharmacon; Lafayette, Colo., USA) and MGMT-morpholinos mixture (1:1; v/v).
(§1) Cell viability assay and western blot analyses: Cell viability and proliferation was measured using the WST-1 Proliferation Assay Kit from Chemicon International Inc. (Temecula, Calif.). Cells or tissues were harvested and then washed with ice-cold PBS twice before the addition of RIPA lysis buffer containing protease and phosphatase inhibitors. Protein concentration was quantified using the Bio-Rad method. Equal amounts of protein were loaded into each well and separated by 7.5 or 12% SDS-PAGE gel followed by transfer onto polyvinylidene difluoride membranes (BioRad, Richmond, Calif.). Membranes were blocked using 5% nonfat dry milk or 2% bovine serum albumin (BSA) in PBS-T. The blots were then incubated with primary antibodies (1:200-1:1,000) overnight at 4° C. Secondary antibody (1:5,000; Cell signaling technology, Danvers, Mass.) was incubated for 2 h at room temperature. Immunoblots were developed using the chemiluminescence detection system (Thermo Scientific, Waltham, Mass.) according to the manufacturer's protocol and autoradiography. Quantification of immunoblotting signal of respective proteins was performed using UN-SCAN-IT Gel software (Silk Scientific, Inc., Orem, Utah).

MGMT [2] = test: Western blot of MGMT expression after ionizing-radiation-enhanced delivery of AMONs, without scrape-loading or transfection agents; format: cell-based, human
Description: The ability of ionizing radiation to enhance the cytosolic delivery of AMONs in T98G glioma cell lines and suppress MGMT expression was assessed. T98 G cells were exposed to AMON SEQ ID NO: 2 alone, SEQ ID NO: 3 alone, or the combination of SEQ ID NO: 1, SEQ ID NO: 2 and SEQ ID NO: 3, one hour after exposure to 1 Gy of ionizing radiation. […] As with the use of scrape loading and lysosomal transfection agents, the inhibition of expression with radiation enhanced delivery of AMONS was transient, with peak inhibition at 3 days and restoration of MGMT expression by 7 days. Based on these findings a combination of sequences 1, 2 and 3 were used for further experiments.
To determine the optimal timing for exposure to AMON with respect to exposure to radiation, T98G cell lines were exposed to AMONs 2 hours and 1 hour before radiation as well as 1 and 24 hours after radiation exposure (FIG. 2B). The best inhibition was observed when cells were exposed to AMON 24 hours after radiation. This time line was adopted for further experiments. Different tumor cell lines required different doses of radiation to enhance delivery of AMON. Knockdown could be achieved in T98G cell lines at 1 Gy while H460 and A549 cell lines required exposure to 6-12 Gy for best results with no inhibition at lower doses of ionizing radiation (FIG. 2C).
Radiation delivery: cell culture: 10^6 cancer cells were exposed to different doses of radiation (0.5-12 Gy) at room temperature using a Philips gamma chamber (Philips Medical Systems, Andover, Mass.). After irradiation, cells were treated with mixtures of MGMT-morpholinos (SEQ ID NO: 1, SEQ ID NO: 2, SEQ ID NO: 3=1:1:1; v/v/v) at different time points and at a final concentration of 15 μM.
as §1

T98G cells = test: Temozolamide cytotoxicity after radiation and AMONs (Western blot of phosphorylated-p53 and caspase 3); format: cell-based, human; settings: for Susceptibility of cells to temozolamide (phosphorylated-p53, caspase 3): T98G, AMONs 1 day after 1 Gy, 75 or 150 μg/ml temozolamide two days later, lysates 1 and 4 days, FIG. 3
Description: FIG. 3 is a flow chart of an experimental model that includes treatment of cells with radiation, morpholino oligonucleotides of SEQ ID NO: 1, SEQ ID NO: 2, and SEQ ID NO: 3, and 75 or 150 μg/ml temozolamide as indicated.
MGMT expressing glioma cell lines such as T98G are known to be resistant to the cytotoxic effects of temozolomide (Yoshino A et al, Int J Oncol 36, 1367-1377 (2010); incorporated by reference herein). AMONs were administered 1 day after exposure of the T98G cells to 1 Gy of radiation and 75 or 150 μg/ml temozolamide administered two days after administration of the AMONs. Whole cell lysates were then collected 1 and 4 days after exposure to the temozolamide and a Western blot using antibodies specific for the indicated proteins performed.
as §1

T98G = settings: Yoshino A et al 2010; cited from earlier work
MGMT [3] = test: Subcutaneous H460 xenograft tumors in athymic nude rats: local radiation plus iv AMON, Western blot of MGMT in tumor lysates; format: in vivo, human
Description: Due to the inconsistent growth of intracranial T98G cell lines, subcutaneous H460 NSCCL tumors in athymic nude rats were studied. 2.5×10^7 H460 cells were subcutaneously injected in each of their hind limbs of 6 animals. When the tumor reached 10 mm in diameter, a single dose of 5 Gy of ionizing radiation was delivered to the tumor field. AMON was administered intravenously (iv) through the femoral vein 24 hours after radiation. Tumors were harvested 3 days after exposure to AMONs.
Delivery of MGMT-morpholino in vivo: Female (200-250 g) nude (mu/rnu) and heterozygous (rnu/wt) rats were selected from the breeding colony maintained in the animal facility. For subcutaneous tumor model, a total of 2.5×10^7 cells were mixed (ratio 1:1; v/v) with Matrigel Basement Membrane Matrix (BD Biosciences, Bedford, Mass.), and the mixture was injected subcutaneously into both left and right hind legs. At d 7 after inoculation, right SQ tumor was exposed to single dose of radiation (5 Gy) with shielding the rest of body using a Philips gamma chamber (Philips Medical Systems, Andover, Mass.), and left SQ tumor of the same animal without radiation was served as control. A total of 30 mM MGMT-morpholinos SEQ ID NO: 1, SEQ ID NO: 2, SEQ ID NO: 3=1:1:1; v/v/v) was administered intravenously 24 h after irradiation. Tissues (SQ tumors, brain, liver, spleen and kidney) were harvested 3 days after morpholinos and subjected to further protein and DNA analysis.
Cell viability assay and western blot analyses: Cell viability and proliferation was measured using the WST-1 Proliferation Assay Kit from Chemicon International Inc. (Temecula, Calif.). Cells or tissues were harvested and then washed with ice-cold PBS twice before the addition of RIPA lysis buffer containing protease and phosphatase inhibitors. Protein concentration was quantified using the Bio-Rad method. […] Quantification of immunoblotting signal of respective proteins was performed using UN-SCAN-IT Gel software (Silk Scientific, Inc., Orem, Utah).

MGMT gene = test: MGMT-gene methylation status of subcutaneous tumors by pyrosequencing; format: in vivo, human; settings: after implantation, radiation or AMONs
Description: Measurement of MGMT DNA methylation status: Subcutaneous xenograft tumor DNA was isolated using DNeasy Blood & Tissue Kit from Qiagen International (Germantown, Md., USA). In order to assure the quality and purity of DNA samples, the ratio of A260/A280 was determined and recorded samples was above 1.9. The percentage methylation status of MGMT DNA at CpG islands in samples were measured at using pyrosequening.

[4] = T98G cells, scrape-loading and liposomal transfection agents
[5] = T98G cells, scrape-loading, FIG. 1A
[6] = T98G cells, AMON one hour after 1 Gy ionizing radiation, lysates 3 and 7 days, FIG. 2A

5′-ATTCCTTCACGGCCAGTCCTT-3′ (morpholino, chemistry not fully specified) [SEQ ID NO: 3]
Inhibition of MGMT expression (Western blot) (MGMT [1]; T98G cells, scrape delivery or lipofectamine/liposomal transfection, lysates 3 and 7 days after treatment, FIG. 1C): transient; also recorded: inhibition of MGMT | Time of best inhibition of MGMT expression (MGMT [1]; [4]): 3 days | Time of restoration of MGMT expression (MGMT [1]; [4]): ≤ 7 days | Inhibition of MGMT expression (Western blot) (MGMT [1]; [5]): most effective in silencing MGMT expression; also recorded: inhibition of MGMT expression | Inhibition of MGMT expression (Western blot) (MGMT [2]; [6]): inhibition of MGMT

5′-TTCCATAACACCTGTCTGGTT-3′ (morpholino, chemistry not fully specified) [SEQ ID NO: 2]
Inhibition of MGMT expression (Western blot) (MGMT [1]; [5]): most effective in silencing MGMT expression; also recorded: inhibition of MGMT expression

5′-TTTCGTGCAGACCCTGCTCTT-3′ (all phosphorodiamidate morpholino (PMO)) [SEQ ID NO: 1]
Inhibition of MGMT expression (Western blot) (MGMT [1]; [5]): inhibition of MGMT expression

Cn1nnc2c(C(N)=O)ncn2c1=O [temozolomide, reference compound]
Dose dependence of enhanced cytotoxic effects (T98G cells; T98G after 1 Gy and AMONs, 75 and 150 μg/mL): dose dependent | Cytotoxic effects on MGMT expressing glioma cell lines (T98G): resistant

SEQ ID NO: 2 and SEQ ID NO: 3: combination of morpholino oligonucleotides of SEQ ID NO: 2 and SEQ ID NO: 3 (chain 1 TTCCATAACACCTGTCTGGTT; chain 2 ATTCCTTCACGGCCAGTCCTT; morpholino, chemistry not fully specified)
Inhibition of MGMT expression (Western blot) (MGMT [2]; [6]): inhibition of MGMT

B1: combination of SEQ ID NO: 1, SEQ ID NO: 2 and SEQ ID NO: 3: mixture of MGMT-morpholinos SEQ ID NO: 1, SEQ ID NO: 2, SEQ ID NO: 3 = 1:1:1 v/v/v; used for experiments after b163 (nucleic acid)
chain 1: TTTCGTGCAGACCCTGCTCTT
chain 2: TTCCATAACACCTGTCTGGTT
chain 3: ATTCCTTCACGGCCAGTCCTT
modifications: morpholino mixture, chemistry not fully specified
notes: used for experiments after b163
Inhibition of MGMT expression (Western blot) (MGMT [1]; H460 NSCLC cells, transfection agents, 6 μM and 15 μM, FIG. 1B): inhibition of MGMT expression | Inhibition of MGMT expression (Western blot) (MGMT [1]; [5]): most effective in silencing MGMT expression | Inhibition of MGMT expression (Western blot) (MGMT [1]; T98G cells, scrape-loading, FIG. 1A, SEQ ID NO: 2, and SEQ ID NO: 3): inhibition of MGMT expression | Inhibition of MGMT expression in tumors (Western blot) (MGMT [3]; H460 subcutaneous control tumors, systemic AMON but no radiation): not seen | Inhibition of MGMT expression in tumors (Western blot) (MGMT [3]; H460 subcutaneous tumors, 5 Gy to tumor 24 hours before iv AMON, harvested 3 days after): inhibition of MGMT expression was achieved | Inhibition of MGMT expression in tumors (Western blot) (MGMT [3]; H460 subcutaneous tumors, 5 Gy to tumor 24 hours before iv AMON, harvested 3 days after, listed as combination of morpholino oligonucleotides of SEQ ID NO: 1, SEQ ID NO: 2, and SE): inhibition of MGMT expression | Susceptibility of cells to temozolamide (phosphorylated-p53, caspase 3) (T98G cells): susceptible to temozolomide | Susceptibility of cells to temozolamide (phosphorylated-p53, caspase 3) (T98G cells; listed as morpholino oligonucleotides of SEQ ID NO: 1, SEQ ID NO: 2, and SEQ ID NO: 3): enhanced cytotoxic effects of temozolamide | Changes in MGMT-gene methylation status (MGMT gene): No significant changes | Radiation dose required for best results (knockdown) (MGMT [2]; H460 and A549 cell lines): 6-12 Gy | Inhibition of MGMT expression at lower doses of ionizing radiation (MGMT [2]; H460 and A549 cell lines, doses below 6-12 Gy): no inhibition | Radiation dose at which knockdown could be achieved (MGMT [2]; T98G cell lines): 1 Gy | Inhibition of MGMT expression (Western blot) (MGMT [2]; T98G cells, 24 hours after exposure to the dose of radiation indicated, FIG. 2C): inhibition of MGMT | Inhibition of MGMT expression (Western blot) (MGMT [2]; T98G cells, AMON one hour after 1 Gy ionizing radiation, lysates 3 and 7 days, FIG. 2A, SEQ ID NO: 2, and SEQ ID NO: 3): inhibition of MGMT | Inhibition of MGMT expression (Western blot) (MGMT [2]; T98G cells, AMON one hour after 1 Gy ionizing radiation, lysates 3 and 7 days, FIG. 2A, listed as combination of sequences 1, 2 and 3): most effective at inhibiting MGMT expression | Time of exposure to AMON after radiation that gave the best inhibition (MGMT [2]; T98G cells, tested 2 h and 1 h before, 1 and 24 h after radiation): 24 h | Inhibition of MGMT expression (Western blot) (MGMT [2]; T98G cells, treated before or after exposure to 1 Gy radiation, FIG. 2B): inhibition of MGMT
